Laboratory results published in article PMC3240612, “Quantitative Multicolor Super-Resolution Microscopy Reveals Tetherin HIV-1 Interaction” (PLoS Pathogens, 2011).

Assays:
[1] = biological target: the molecule itself; assay: non-reducing against reducing SDS-PAGE with Western blot; virions stripped from 293T cells by subtilisin A (0, 5 or 50 µg/ML), pelleted through sucrose, lysed in RIPA; anti-HA blot without βME and with βME
[2] = biological target: T1, HA-tetherin (N-terminal HA-tagged tetherin), in virions released by PI-PLC (human), Q10589; conditions: remark: other sources report otherwise
T1 chain: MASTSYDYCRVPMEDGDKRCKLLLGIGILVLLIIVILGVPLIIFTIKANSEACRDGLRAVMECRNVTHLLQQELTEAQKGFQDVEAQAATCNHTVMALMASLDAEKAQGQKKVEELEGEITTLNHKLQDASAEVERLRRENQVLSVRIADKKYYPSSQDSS

[3] = biological target: T2, tetherin-HA (HA tag inserted after the extracellular coiled-coil domain), in virions released by PI-PLC (human), Q10589; conditions: remark: other sources report otherwise
T2 chain: T1 chain

B1: N-terminal fragment of HA-tetherin left inside virions after subtilisin A treatment (domain or fragment, human, UniProt Q10589 1-67, looked up)
chain: MASTSYDYCRVPMEDGDKRCKLLLGIGILVLLIIVILGVPLIIFTIKANSEACRDGLRAVMECRNVT
notes: tetherin (CD317, BST-2, HM1.24), human, Swiss-Prot Q10589; N-terminal fragment left after subtilisin A cleavage; Disulfide-linked dimer: ~26 kDa without βME, ~13 kDa with βME; also called dimeric N-termini; HA fragment of ~26 kDa (non-reducing), ~13 kDa (reducing); source: 293T, transfected with HIV-1 Δvpu and HA-tetherin; cells treated with subtilisin A; released virions pelleted through sucrose …
stoichiometry N [1]: 2

B2: HA-tetherin (N-terminal HA-tagged tetherin), in virions released by PI-PLC, Q10589 1-161 (natural protein)
chain: T1 chain
modifications: here or on the partner: C-terminal GPI anchor, cut by PI-PLC; C-terminal GPI anchor, cut by PI-PLC
stoichiometry N [2]: 2

B3: tetherin-HA (HA tag inserted after the extracellular coiled-coil domain), in virions released by PI-PLC, Q10589 1-161 (natural protein)
chain: T1 chain
modifications: here or on the partner: C-terminal GPI anchor, cut by PI-PLC; C-terminal GPI anchor, cut by PI-PLC
stoichiometry N [3]: 2
